This data set deals with the molecule itself. Briefly: cryo-EM structure.

B1: HCMV UL141 soluble ectodomain (residues 30-278) with C-terminal 8X His-Tag (domain or fragment)
chain: SFPFATADIAEKMWAENYETTSPAPVLVAEGEQVTIPCTVMTHSWPMVSIRARFCRSHDGSDELILDAVKGHRLMNGLQYRLPYATWNFSQLHLGQIFSLTFNVSTDTAGMYECVLRNYSHGLIMQRFVILTQLETLSRPDEPCCTPALGRYSLGDQIWSPTPWRLRNHDCGMYRGFQRNYFYIGRADAEDCWKPACPDEEPDRCWTVIQRYRLPGDCYRSQPHPPKFLPVTPAPPADIDTGMSPWATR
Broadly, the stoichiometry N is the number of molecules, sites or subunits per partner or assembly. Consider B1, for which the “stoichiometry N” value is 2.

Source of the values: PMC11482907 (bioRxiv, 2024).
